# Reference: PMC9482650, “Quantitative fragmentomics allow affinity mapping of interactomes” (Nature Communications, 2022)
# Where a chain is given by its changes, count along the chain named.
# T1: APBA3_1, O96018
# T1 sequence (O96018 389-490, limits assumed, looked up): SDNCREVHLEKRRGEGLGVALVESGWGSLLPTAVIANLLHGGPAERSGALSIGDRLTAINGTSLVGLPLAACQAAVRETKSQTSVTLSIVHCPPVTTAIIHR
# T2: DVL3, Q92997
# T2 sequence (Q92997 244-331, limits assumed, looked up): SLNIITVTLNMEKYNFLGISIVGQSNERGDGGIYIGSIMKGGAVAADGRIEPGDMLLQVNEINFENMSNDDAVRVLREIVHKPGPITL
# T3: FRMPD1, Q5SYB0
# T3 sequence (Q5SYB0 52-145, limits assumed, looked up): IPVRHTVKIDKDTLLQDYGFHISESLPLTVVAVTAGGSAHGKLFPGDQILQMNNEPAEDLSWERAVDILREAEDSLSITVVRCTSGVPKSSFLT
# T4: GRIP1_4, Q9Y3R0
# T4 sequence (Q9Y3R0 467-571, limits assumed, looked up): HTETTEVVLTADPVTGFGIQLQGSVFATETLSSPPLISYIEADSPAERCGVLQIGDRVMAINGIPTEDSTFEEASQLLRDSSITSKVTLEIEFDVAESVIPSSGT
# T5: HTRA4, P83105
# T5 sequence (P83105 378-476, limits assumed, looked up): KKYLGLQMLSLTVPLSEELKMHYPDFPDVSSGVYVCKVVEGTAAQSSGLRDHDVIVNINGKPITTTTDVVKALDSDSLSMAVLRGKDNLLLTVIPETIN
# T6: LIN7B, Q9HAP6
# T6 sequence (Q9HAP6 88-185, limits assumed, looked up): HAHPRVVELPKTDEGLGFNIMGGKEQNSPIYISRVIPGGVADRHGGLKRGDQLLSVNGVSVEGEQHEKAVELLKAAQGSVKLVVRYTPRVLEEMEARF
# T7: LIN7C, Q9NUP9
# T7 sequence (Q9NUP9 88-185, limits assumed, looked up): T6 sequence (Q9HAP6 88-185, limits assumed, looked up) with A2S, D13E, V35I, V40I, Q65H, S79K, R89K, A96S
# T8: LNX2_3, Q8N448
# T8 sequence (Q8N448 463-564, limits assumed, looked up): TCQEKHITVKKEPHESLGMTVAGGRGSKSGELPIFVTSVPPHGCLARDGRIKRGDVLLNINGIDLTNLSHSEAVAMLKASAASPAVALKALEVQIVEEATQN
# T9: MPP2, Q14168
# T9 sequence (Q14168 180-250, limits assumed, looked up): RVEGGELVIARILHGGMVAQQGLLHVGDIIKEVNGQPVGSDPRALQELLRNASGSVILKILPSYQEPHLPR
# T10: PDZD2_2, O15018
# T10 sequence (O15018 329-429, limits assumed, looked up): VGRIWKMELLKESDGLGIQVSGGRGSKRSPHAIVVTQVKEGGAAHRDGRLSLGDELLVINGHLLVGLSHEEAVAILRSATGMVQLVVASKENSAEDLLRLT
# T11: PDZD7_3, Q9H5P4
# T11 sequence (Q9H5P4 857-944, limits assumed, looked up): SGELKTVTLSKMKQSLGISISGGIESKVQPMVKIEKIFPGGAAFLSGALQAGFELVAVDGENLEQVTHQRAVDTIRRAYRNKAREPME
# Molecular target: T1, APBA3_1, O96018
# Assay: holdup assay
# Set-up: key: below the threshold = too weak to quantify, mostly under pKd 3.1 to 4
# Details: plain residues with an end cap or a label only (N-terminal biotin on a linker: ado-ado)
row,Binder,pKd
1,"KSGKQTMLVV [TRIM29, Q14134;Q14134-2]",below the threshold
2,"LPAHHNATRL [SLC34A1, Q06495;Q06495-1]",below the threshold

# Molecular target: ARHGEF12, Q9NZN5-2
# Assay: holdup assay
# Set-up: key: below the threshold = too weak to quantify, mostly under pKd 3.1 to 4
# Details: plain residues with an end cap or a label only (N-terminal biotin on a linker: ado-ado)
# Sequence of ARHGEF12, Q9NZN5-2 (Q9NZN5 other isoform, or with tags, fused parts or gaps): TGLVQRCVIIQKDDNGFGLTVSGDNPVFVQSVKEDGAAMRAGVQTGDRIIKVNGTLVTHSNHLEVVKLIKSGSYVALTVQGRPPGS
row,Binder,pKd
1,"LPAHHNATRL [SLC34A1, Q06495;Q06495-1]",4.44

# Molecular target: T2, DVL3, Q92997
# Assay: holdup assay
# Set-up: key: below the threshold = too weak to quantify, mostly under pKd 3.1 to 4
# Details: plain residues with an end cap or a label only (N-terminal biotin on a linker: ado-ado)
row,Binder,pKd
1,"KSGKQTMLVV [TRIM29, Q14134;Q14134-2]",below the threshold
2,"LPAHHNATRL [SLC34A1, Q06495;Q06495-1]",below the threshold

# Molecular target: T3, FRMPD1, Q5SYB0
# Assay: holdup assay
# Set-up: key: below the threshold = too weak to quantify, mostly under pKd 3.1 to 4
# Details: plain residues with an end cap or a label only (N-terminal biotin on a linker: ado-ado)
row,Binder,pKd
1,"KSGKQTMLVV [TRIM29, Q14134;Q14134-2]",below the threshold
2,"LPAHHNATRL [SLC34A1, Q06495;Q06495-1]",below the threshold

# Molecular target: FRMPD2_1, Q68DX3
# Assay: holdup assay
# Set-up: key: below the threshold = too weak to quantify, mostly under pKd 3.1 to 4
# Details: plain residues with an end cap or a label only (N-terminal biotin on a linker: ado-ado)
# Sequence of FRMPD2_1, Q68DX3 (Q68DX3 770-861): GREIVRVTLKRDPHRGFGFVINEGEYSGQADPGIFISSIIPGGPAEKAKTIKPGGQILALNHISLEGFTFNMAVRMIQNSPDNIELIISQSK
row,Binder,pKd
1,"LPAHHNATRL [SLC34A1, Q06495;Q06495-1]",below the threshold

# Molecular target: GRID2IP_1, A4D2P6
# Assay: holdup assay
# Set-up: key: below the threshold = too weak to quantify, mostly under pKd 3.1 to 4
# Details: plain residues with an end cap or a label only (N-terminal biotin on a linker: ado-ado)
# Sequence of GRID2IP_1, A4D2P6 (A4D2P6 1-87): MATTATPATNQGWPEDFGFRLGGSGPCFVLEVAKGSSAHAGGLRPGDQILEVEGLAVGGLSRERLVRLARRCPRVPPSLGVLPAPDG
row,Binder,pKd
1,"KSGKQTMLVV [TRIM29, Q14134;Q14134-2]",below the threshold
2,"LPAHHNATRL [SLC34A1, Q06495;Q06495-1]",below the threshold

# Molecular target: T4, GRIP1_4, Q9Y3R0
# Assay: holdup assay
# Set-up: key: below the threshold = too weak to quantify, mostly under pKd 3.1 to 4
# Details: plain residues with an end cap or a label only (N-terminal biotin on a linker: ado-ado)
row,Binder,pKd
1,"KSGKQTMLVV [TRIM29, Q14134;Q14134-2]",below the threshold
2,"LPAHHNATRL [SLC34A1, Q06495;Q06495-1]",below the threshold

# Molecular target: T5, HTRA4, P83105
# Assay: holdup assay
# Set-up: key: below the threshold = too weak to quantify, mostly under pKd 3.1 to 4
# Details: plain residues with an end cap or a label only (N-terminal biotin on a linker: ado-ado)
row,Binder,pKd
1,"KSGKQTMLVV [TRIM29, Q14134;Q14134-2]",4.14
2,"LPAHHNATRL [SLC34A1, Q06495;Q06495-1]",3.96

# Molecular target: IL16_4, Q14005
# Assay: holdup assay
# Set-up: key: below the threshold = too weak to quantify, mostly under pKd 3.1 to 4
# Details: plain residues with an end cap or a label only (N-terminal biotin on a linker: ado-ado)
# Sequence of IL16_4, Q14005 (Q14005 1229-1329): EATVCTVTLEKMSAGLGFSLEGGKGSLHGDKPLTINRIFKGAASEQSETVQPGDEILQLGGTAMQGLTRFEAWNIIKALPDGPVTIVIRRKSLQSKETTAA
row,Binder,pKd
1,"LPAHHNATRL [SLC34A1, Q06495;Q06495-1]",below the threshold

# Molecular target: Inadl_1, Q8NI35
# Assay: holdup assay
# Set-up: key: below the threshold = too weak to quantify, mostly under pKd 3.1 to 4
# Details: plain residues with an end cap or a label only (N-terminal biotin on a linker: ado-ado)
# Sequence of Inadl_1, Q8NI35 (Q8NI35 113-229): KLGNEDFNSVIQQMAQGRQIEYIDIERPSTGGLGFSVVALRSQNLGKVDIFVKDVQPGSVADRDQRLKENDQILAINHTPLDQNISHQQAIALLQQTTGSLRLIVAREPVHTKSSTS
row,Binder,pKd
1,"KSGKQTMLVV [TRIM29, Q14134;Q14134-2]",below the threshold
2,"LPAHHNATRL [SLC34A1, Q06495;Q06495-1]",below the threshold

# Molecular target: Inadl_3, Q8NI35
# Assay: holdup assay
# Set-up: key: below the threshold = too weak to quantify, mostly under pKd 3.1 to 4
# Details: plain residues with an end cap or a label only (N-terminal biotin on a linker: ado-ado)
# Sequence of Inadl_3, Q8NI35 (Q8NI35 359-469): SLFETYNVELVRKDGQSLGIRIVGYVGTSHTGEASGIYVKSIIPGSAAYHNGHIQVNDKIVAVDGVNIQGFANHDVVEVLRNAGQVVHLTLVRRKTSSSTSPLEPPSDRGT
row,Binder,pKd
1,"KSGKQTMLVV [TRIM29, Q14134;Q14134-2]",below the threshold
2,"LPAHHNATRL [SLC34A1, Q06495;Q06495-1]",below the threshold

# Molecular target: Inadl_6, Q8NI35
# Assay: holdup assay
# Set-up: key: below the threshold = too weak to quantify, mostly under pKd 3.1 to 4
# Details: plain residues with an end cap or a label only (N-terminal biotin on a linker: ado-ado)
# Sequence of Inadl_6, Q8NI35 (Q8NI35 1058-1167): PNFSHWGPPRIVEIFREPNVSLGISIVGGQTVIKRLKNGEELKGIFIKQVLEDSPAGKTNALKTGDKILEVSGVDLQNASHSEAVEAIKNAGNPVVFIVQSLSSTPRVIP
row,Binder,pKd
1,"KSGKQTMLVV [TRIM29, Q14134;Q14134-2]",below the threshold
2,"LPAHHNATRL [SLC34A1, Q06495;Q06495-1]",below the threshold

# Molecular target: Inadl_9, Q8NI35
# Assay: holdup assay
# Set-up: key: below the threshold = too weak to quantify, mostly under pKd 3.1 to 4
# Details: plain residues with an end cap or a label only (N-terminal biotin on a linker: ado-ado)
# Sequence of Inadl_9, Q8NI35 (Q8NI35 1530-1615): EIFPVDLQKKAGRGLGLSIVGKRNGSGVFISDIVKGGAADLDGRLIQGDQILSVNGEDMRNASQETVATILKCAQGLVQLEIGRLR
row,Binder,pKd
1,"LPAHHNATRL [SLC34A1, Q06495;Q06495-1]",below the threshold

# Molecular target: T6, LIN7B, Q9HAP6
# Assay: holdup assay
# Set-up: key: below the threshold = too weak to quantify, mostly under pKd 3.1 to 4
# Details: plain residues with an end cap or a label only (N-terminal biotin on a linker: ado-ado)
row,Binder,pKd
1,"KSGKQTMLVV [TRIM29, Q14134;Q14134-2]",below the threshold
2,"LPAHHNATRL [SLC34A1, Q06495;Q06495-1]",below the threshold

# Molecular target: T7, LIN7C, Q9NUP9
# Assay: holdup assay
# Set-up: key: below the threshold = too weak to quantify, mostly under pKd 3.1 to 4
# Details: plain residues with an end cap or a label only (N-terminal biotin on a linker: ado-ado)
row,Binder,pKd
1,"KSGKQTMLVV [TRIM29, Q14134;Q14134-2]",below the threshold
2,"LPAHHNATRL [SLC34A1, Q06495;Q06495-1]",below the threshold

# Molecular target: LNX1_3, Q8TBB1
# Assay: holdup assay
# Set-up: key: below the threshold = too weak to quantify, mostly under pKd 3.1 to 4
# Details: plain residues with an end cap or a label only (N-terminal biotin on a linker: ado-ado)
# Sequence of LNX1_3, Q8TBB1 (Q8TBB1 500-596): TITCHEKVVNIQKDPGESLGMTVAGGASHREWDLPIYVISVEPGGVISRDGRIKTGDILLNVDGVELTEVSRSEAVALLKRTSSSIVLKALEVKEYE
row,Binder,pKd
1,"KSGKQTMLVV [TRIM29, Q14134;Q14134-2]",below the threshold
2,"LPAHHNATRL [SLC34A1, Q06495;Q06495-1]",below the threshold

# Molecular target: T8, LNX2_3, Q8N448
# Assay: holdup assay
# Set-up: key: below the threshold = too weak to quantify, mostly under pKd 3.1 to 4
# Details: plain residues with an end cap or a label only (N-terminal biotin on a linker: ado-ado)
row,Binder,pKd
1,"KSGKQTMLVV [TRIM29, Q14134;Q14134-2]",below the threshold
2,"LPAHHNATRL [SLC34A1, Q06495;Q06495-1]",below the threshold

# Molecular target: MAGI2_5, Q86UL8
# Assay: holdup assay
# Set-up: key: below the threshold = too weak to quantify, mostly under pKd 3.1 to 4
# Details: plain residues with an end cap or a label only (N-terminal biotin on a linker: ado-ado)
# Sequence of MAGI2_5, Q86UL8 (Q86UL8 915-1017): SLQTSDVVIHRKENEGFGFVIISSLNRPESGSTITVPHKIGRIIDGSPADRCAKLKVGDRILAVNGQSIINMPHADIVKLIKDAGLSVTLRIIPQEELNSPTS
row,Binder,pKd
1,"KSGKQTMLVV [TRIM29, Q14134;Q14134-2]",below the threshold

# Molecular target: MAST2, Q6P0Q8
# Assay: holdup assay
# Set-up: key: below the threshold = too weak to quantify, mostly under pKd 3.1 to 4
# Details: plain residues with an end cap or a label only (N-terminal biotin on a linker: ado-ado)
# Sequence of MAST2, Q6P0Q8 (Q6P0Q8 1099-1202): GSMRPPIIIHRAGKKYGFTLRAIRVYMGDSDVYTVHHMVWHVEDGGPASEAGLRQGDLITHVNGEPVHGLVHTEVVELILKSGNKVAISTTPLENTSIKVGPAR
row,Binder,pKd
1,"LPAHHNATRL [SLC34A1, Q06495;Q06495-1]",5.47

# Molecular target: T9, MPP2, Q14168
# Assay: holdup assay
# Set-up: key: below the threshold = too weak to quantify, mostly under pKd 3.1 to 4
# Details: plain residues with an end cap or a label only (N-terminal biotin on a linker: ado-ado)
row,Binder,pKd
1,"KSGKQTMLVV [TRIM29, Q14134;Q14134-2]",below the threshold
2,"LPAHHNATRL [SLC34A1, Q06495;Q06495-1]",below the threshold

# Molecular target: NHERF4_1, Q86UT5-2
# Assay: holdup assay
# Set-up: key: below the threshold = too weak to quantify, mostly under pKd 3.1 to 4
# Details: plain residues with an end cap or a label only (N-terminal biotin on a linker: ado-ado)
# Sequence of NHERF4_1, Q86UT5-2 (Q86UT5 other isoform, or with tags, fused parts or gaps): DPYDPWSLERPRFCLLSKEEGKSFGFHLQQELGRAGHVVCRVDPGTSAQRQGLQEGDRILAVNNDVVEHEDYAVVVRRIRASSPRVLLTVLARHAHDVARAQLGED
row,Binder,pKd
1,"LPAHHNATRL [SLC34A1, Q06495;Q06495-1]",4.01

# Molecular target: NHERF4_4, Q86UT5
# Assay: holdup assay
# Set-up: key: below the threshold = too weak to quantify, mostly under pKd 3.1 to 4
# Details: plain residues with an end cap or a label only (N-terminal biotin on a linker: ado-ado)
# Sequence of NHERF4_4, Q86UT5 (Q86UT5 464-550): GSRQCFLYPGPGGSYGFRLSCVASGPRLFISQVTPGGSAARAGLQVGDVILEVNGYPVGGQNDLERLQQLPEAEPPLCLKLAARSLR
row,Binder,pKd
1,"LPAHHNATRL [SLC34A1, Q06495;Q06495-1]",below the threshold

# Molecular target: T10, PDZD2_2, O15018
# Assay: holdup assay
# Set-up: key: below the threshold = too weak to quantify, mostly under pKd 3.1 to 4
# Details: plain residues with an end cap or a label only (N-terminal biotin on a linker: ado-ado)
row,Binder,pKd
1,"KSGKQTMLVV [TRIM29, Q14134;Q14134-2]",below the threshold
2,"LPAHHNATRL [SLC34A1, Q06495;Q06495-1]",below the threshold

# Molecular target: T11, PDZD7_3, Q9H5P4
# Assay: holdup assay
# Set-up: key: below the threshold = too weak to quantify, mostly under pKd 3.1 to 4
# Details: plain residues with an end cap or a label only (N-terminal biotin on a linker: ado-ado)
row,Binder,pKd
1,"KSGKQTMLVV [TRIM29, Q14134;Q14134-2]",below the threshold
2,"LPAHHNATRL [SLC34A1, Q06495;Q06495-1]",4.43
